Results taken from the DeepSol protein solubility set.

assay: soluble on expression in E. coli; label from the status in PepcDB or PDB records

| Sequence | soluble on expression in E. coli |
| --- | --- |
| MLNTSDIGKVFPSVTAVVEKGRLRFFAKAIGENNPIYTDEAAAKDAGYESLPMPPTFFFSLKMDVPNPFENYEKVGASLAKILHANQAFVYHQSVVAGDSLTFESHIADIYDKKAGALEFLVEKTKVSNQRGQHVADMTTTLVVRNLEHHHHHH | not soluble |
| MLNVEPSFAEELRSSGVSLSATYLGSVPVVESINVMVSEMRVQVVSLVFLMA | not soluble |
| MLPAWGTSTEATASHAGWDGDDEGDIRAAYTEDEKKENIPPISLTSVSTNGAYPGQKRRRSESVRTLKPECPPEETQRLRQRRRISATDATQSSRTMNVIEDRKPRVNRARKSQDAPSTSTCGFETPVGTKRKSKAADSQKPPKQSKLRKIDEASTSKAVDNSSKDGKKTTKPAVTQSNRRRSGLSLRPVPIETIFSESSGRESSTEDEADVSHQQ | not soluble |
| MLPDADSKDQLVTIIQSVKPPTVPPHRSHDPANNLKRTDPYQFGSRYLEEGDDVFEFNAWDHVEPDDEFKAFAEVQYAKQRESPVSDFDKQRFNKDPAKWWNLFYKNNTSNFFKDRKWLRQEFPVLAEVTQKGAGRKVVLEVGAGAGNTAFPLITHNKNEELMVHACDFSKTAVQVMRESEHYNPKFISADVWDVTAVPDEENNGLPPGLTEGSVDVVILIFIFSALAPSQWDQAIRNVYRVLKPGGLVLFRDYGRGDLAQVRFKKGRYMDENFYVRGDGTRVYFFEKEQLEKMWGTWTPEKGLQMAEDNSIVAESEGAFDVEKIGVDRRLIVNRQRKLKMYRCWIQAHYRKRETPAAVEAEKADS | not soluble |
| MLPFVFNADDDGKRVQNEEGNYDPTDHQRQMEDYYKQYEEQRVANSFHNTTGRPDLVAMQARLAETEQAIHRLNEEKKQPPPGFPIMTTPATQPEISIPRSGENKSSRSPSWAREARRSRSRSRDRRGGRSRSRSPSRRRTSRDRRDDRSSRRRRGPIINQLS | soluble |
| MLPKAFLSRMAELLGEEFPAFLKALTEGKRTYGLRVNTLKLPPEAFQRISPWPLRPIPWCQEGFYYPEEARPGPHPFFYAGLYYIQEPSAQAVGVLLDPKPGERVLDLAAAPGGKTTHLAARMGGKGLLLANEVDGKRVRGLLENVERWGAPLAVTQAPPRALAEAFGTYFHRVLLDAPCSGEGMFRKDREAARHWGPSAPKRMAEVQKALLAQASRLLGPGGVLVYSTCTFAPEENEGVVAHFLKAHPEFRLEDARLHPLFAPGVPEWGEGNPELLKTARLWPHRLEGEGHFLARFRKEGGAWSTPRLERPSPLSQEALRAFRGFLEEAGLTLEGPVLDRAGHLYLLPEGLPTLLGLKAPAPGLYLGKVQKGRFLPARALALAFGATLPWPEGLPRLALTPEDPRALAFATGEGVAWEGEDHPLALVVLKTAAGEFPLDFGKAKRGVLRPVGVGLRSHHHHHH | soluble |
| MLPNNQWQIPINNGLTHQENMAAHAAVMKLRVHDLQSIISQLSLRKPRPQKSEHQKVVVESLRDPHHARQIYQMVISLIFSSLQASNFPNGNYEMQKRPATTSQVRSHPYVLPSRSGASNHLVNHHYQQQQQQQPQPHNLLHQQMMASHHSHLQQQHHPSTPKKMYADNFEPLPLPFYDVISVLLKPVELHSSDSPTLKQTKQLQFPFLLTAEHISKISYRADVTPLPRYELQLRFFNLTEPVQGPQKDDFPLNCYARVDDSVVQLPNVIPTNKTNAEPKRPSRPVNITSNMNRYKKEHTVAVEWLADKRVWAAGVYFVHRVNSDILFKRLNQNVSRHRSLEVTKQEVIKKLSGGEDDIAMDRLNISLLDPLCKTRMTTPSRCQDCTHLQCFDLLSYLMMNEKKPTWQCPVCSSNCPYDRLIVDDYFLDMLAKVDKNTTEVELKEDGSYDVIKEEAFCISDDDDDDVVPATVNGTASCSSTNGNGLANEAAKKKPADDDIITLSDDDDEELNRGIMNSLNDSFSPGRHTASAELAAQKTPPQQKKKTKDDDIEIITLDDTPPRPVAASANLPMRQMSQQNQMPVGSSPSGMASTQMGMNEGASKTIRDALNKIGEPMINQAPHFQMQNGLIGRNNQMVHMQQHHLQQQQQQQQSPQIMSPSFYAQQQMSNGGAFAYYPPQYPQQQYRQN | not soluble |
| MLPPPRREPDWSAQAFRWHRQGLAGWLEAVHEPHAVALDRLACVDAQREQLLANTRQFVAGLPANNVLLTGARGTGKSSLVKALLPEFGRDGLRLIEIDREHLADLPQLVELLSGRPERFVLFCDDLSFEHGDAGYKALKSALDGGLARRCDNLLVYATSNRRHLLPEQMSENREGWLRDGEIHPGEAVEEKVSLSDRFGLWLSFYPFDQDAYLAAVREWLGHFGLKYGDKAERAALQWSLSRGSRSGRVAWQFACHWAGSQKLARRSGKKLEHHHHHH | not soluble |
| MLPSKYEDNALQIKEKSTERTAPFFVLEVTARSAADILGIHPNSAALFYRKIRTVINHHLALAADEVFEGPVEPDESDFGGRRKGRRGRGAAGKVVVFGILKRNGRVYTVVVDNAKSETLLPVIKKKIMPDSIVYTDSLSSYDKLDVSGFIHYRINHSKECADRQNHINGIENFWNQAKRVLRKYNGIDRKSFPLFLKECEFRFNFGTPSQQLKILRDWCGILEHHHHHH | not soluble |
| MLQPKRTKFRKVHKGRNRGIASGTEVSFGTYGLKAVGRCRLTARQIEAARRAMSRAVKRQGKIWIRVFPDKPITEKPLEVRMGKGKGNVEYWVALIQPGKVLYEMDGVSEEVARNAFALAAAKLPVKTTFVTKTVMLEHHHHHH | not soluble |
| MLQSNEYFSGKVKSIGFSSSSTGRASVGVMVEGEYTFSTAEPEEMTVISGALNVLLPDATDWQVYEAGSVFNVPGHSEFHLQVAEPTSYLCRYL | soluble |
| MLRFFIQPQLNTIVDSVIGYEMLIKEYRDGTWRMPASFSAIPAHDMAELLIATAKELSLKVGSVSFNVDRNQILDDQLIHALIAAQTVLRPVKLIIELIENDVKPSVSDEQLIEVVTQLNDFGIQFCLDDVGSGINTWPAVKPLLPYTRELKYALQNYKEHLNESAAENHVTFWQNLATKHQMRFILEGIEDDNDDAWADSMNIDLRQGYYYGRP | not soluble |
| MLRFYAMKQITEPGTYEIRGEVAEGDFSWDATNFAGFFYDVNDDVSTESLTVTGLNGGNVIPEGGLVYETTIQMVDYEYSKPSVGWDQFPVLGFFAEEYIPINADKADKLAKLVLDSDDKYTIRTGEQLDLGEGYAIEAKQVDVDGEKVWLEFTKDGEFVDDEIISVVSGSDNTWEVELDDIQDEDDVVVLRVHVNQVFQGAVDSIAQIEGIWLIDYANAMKIESDDEFGDLDNVKINGATLTITNEDTFTLTRDDEVEIGQGMFFKVADTAASDLRYYPFVEKTIDGEVVDDDEDDDNVTEPVDNDTEVEEPTEEPTEGPTEELEHHHHHH | not soluble |
| MLRGLRIIAENKIGVLRDLTTIIAEEGGNITFAQTFLIKHGEHEGKALIYFEIEGGDFEKILERVKTFDYIIEIEEEESFERVFGKRVIILGGGALVSQVAIGAISEADRHNLRGERISVDTMPVVGEEEIAEAVKAVSRLHRAEVLVLAGGIMGGKITEEVKKLRKSGIRVISLSMFGSVPDVADVVISDPVMAGTLAVMHISEKAKFDLDRVKGRRI | soluble |
| MLRKGVSFVGQAVQQTLKTQKNLRIQRFSATASQSSEEVNYEIRKDGKRLRGADYEEIVLTSIAGEDKTQIPKGAFDVLLKEYDDLQAESLDFKDKYQRSLAETENVRRRGIKQTDDAKVFAIQSFCKDLLEVSDILDIAVKSVKPEDLESGGKALKDLFEGVSMTRTVMAKTFAKHGLVTVDPTNEKFDPNLHEAVFQIPSANAKQPVGHIEVCTKIGYSLKERPIRPAQVGVVSK | not soluble |
| MLRKISLLLSICFLLHQNIAYGEDNQQSIYEKRMALYKETEQSSGIPWYYLAAMDQYERNIRSVRKDIPKKPDAIISLYFKPEIWAGPVNGNDTLPHTIALFGGLGLDGDKDGFANANNDRDLLHTAATILKKQGTSEERIKIMLWEYYRRAKTVDLITEYAQIYKHYGRINLEGNAFPLPIRSDHSYRSTFGAGRSFGGRRVHEGTDIFAGYGVPVRSTCYGIIETKGWNRLGGWRIGIRDLHNNYHYYAHLGGFSKEIQLGQIVEPGKVIGFVGSTGYGPPGTAGKFPPHLHFGMYKDNGYTEWAFDPYMHLSLWERKERANTKR | not soluble |
| MLRRQARERREYLYRKAQELQDSQLQQKRQIIKQALAQGKPLPKELAEDESLQKDFRYDQSLKESEEADDLQVDDEYAATSGIMDPRIIVTTSRDPSTRLSQFAKEIKLLFPNAVRLNRGNYVMPNLVDACKKSGTTDLVVLHEHRGVPTSLTISHFPHGPTAQFSLHNVVMRHDIINAGNQSEVNPHLIFDNFTTALGKRVVCILKHLFNAGPKKDSERVITFANRGDFISVRQHVYVRTREGVEIAEVGPRFEMRLFELRLGTLENKDADVEWQLRRFIRTANKKDYL | soluble |
| MLRRQMSFNGKSDMGILYLVPTPIGNLEDMTFRAIDTLKSVDAIAAEDTRQTKKLCHVYEIETPLVSYHEHNKESSGHKIIEWLKSGKNIALVSDAGLPTISDPGAEIVKDFTDIGGYVVPLPGANAALTALIASGIVPQPFFFYGFLNRQKKEKKKELEALKKRQETIIFYEAPHRLKETLSAMAEILGDREIAVTRELTKKYEEFIRGTISEVIGWANEDQIRGEFCLVVEGSNNEEVDEEEQWWETLTAKEHVEHYISKGATSKEAIKKAAVDRNVPKREVYDAYHIKQLEHHHHHH | not soluble |
| MLRVAVSAALRTVSVRALSNASVQQRVITPILLSAQKPSFQIRQYSAKAPLTKKTLEERIVLVLSLYDKIDAKKLTMDSDFSKDLGLDSLDHVEVVMAMEEEFGFEIPDGDADRFKTPRDIFQYIADKEDVFE | not soluble |
| MLSALLIAKRYSSKEDTMPHLFPDLPYAYDALEPYIDTKTMEVHYSKHHRTYYDKFLSAIKGTEHEDRPLSEIFARVSTLPAAVRNHGGGYYNHIVYWNCMKPNAGGEPQGELAAEIERQFGSFAQFKEAFSQAAVNTFGSGFVWLIVQQGQLSITSTSNQDNPLMDVVAVRGEPILALDVWEHAYYIRYQNRRPEYIDAWWNVVNWEAVSENYAIALTQAA | not soluble |
| MLSANRDCAFGRVHDFAGIRNAGDFRDKVPMHTYAQLQPWIERAQHESGAVLTTRPPLFFERSSGNSALQKLIPYTPEFLAQLQGSLTVWLADMYRQVPEISHGSGYWSMSPPLQQPAVSANGIPVGSVSDLQYLQGSAIAGLAGTLLIPDLAHDVVHWRRQTLLALVADADLSFISVWSPTFLTSLLQPLFDTERQTCAWLEAMLPASRKLALRHARAQGVFTELWPRLAAVSCWMDGPSHGYAVQLAALFPQARWLPKGLFATEGVVSVPFGEGQGCPLAIGSHYLEFVGDDGLPRGARSLRMGETAQVLLTTGAGLYRYVLGDRVRMVGNHAGTPRVAFVGRSASACDLVGEKLDEQLVEGVLAQCIDSADSACLIPDSRNTPPHYVALVSTSAVTPGQVLANSIETVLQGSFHYAHARTLGQLGPLRVRFVSGGAQTLAALLQRAAEATGVRAGDVKPRALISRLDTANALLAITEEFECPHL | not soluble |
| MLSATLLNRTVFHSLSPLHSLAHLASDMESSVNKAPSLIAAIVLGLGISACGYFVGDGVKHLKTNNRYVNVRGLSEKEVRADTAELTIAINFKGNVPGELFPKLEEAQKKIVAELNAQGINEKEIILGQWTSKRTDSFYLKDDPTMPRYNADGSVTIKTHNVAAVEKVVAKLNELQVATDGAIAESKVAYRFNGIGALRAEMIAAATKDARNAALQFATDSGSQVGSISDASQGVFQIFASGSDEDDPTAINKTVRVVTTVTYALQD | not soluble |
